In paper PMC5517495, “Candidate SNP Markers of Familial and Sporadic Alzheimer's Diseases Are Predicted by a Significant Change in the Affinity of TATA-Binding Protein for Human Gene Promoters” one finds Kd data, which are given here for two molecules.

The target in this data set is TATA-binding protein (TBP) (human, UniProt P20226 1-339). Description: stopped-flow fluorescence (FRET); 0.1 uM ODN, 0.1-1.0 uM TBP; EMSA: 20 mM HEPES-KOH pH 7.6, 5 mM MgCl2, 70 mM KCl, 1 mM EDTA, 100 ug/ml BSA, 0.01% NP-40 (printed 0.0.1%), 5% glycerol, 25 C; stopped-flow buffer not stated. The following applies: protein: recombinant; label: 5' TAMRA and 5' FAM; blunt. A general note: In EMSA bound probe runs differently from free probe, usually more slowly.
TATA-binding protein (TBP), sequence (P20226 whole entry): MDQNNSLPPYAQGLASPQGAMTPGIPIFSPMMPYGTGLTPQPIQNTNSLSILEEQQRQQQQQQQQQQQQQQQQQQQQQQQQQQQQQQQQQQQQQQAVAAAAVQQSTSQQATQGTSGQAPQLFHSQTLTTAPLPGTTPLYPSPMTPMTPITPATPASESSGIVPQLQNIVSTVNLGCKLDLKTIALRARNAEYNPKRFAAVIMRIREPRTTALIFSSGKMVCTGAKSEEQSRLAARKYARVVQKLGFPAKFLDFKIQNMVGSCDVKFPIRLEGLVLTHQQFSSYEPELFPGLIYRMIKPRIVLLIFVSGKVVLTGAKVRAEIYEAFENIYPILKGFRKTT

B1: TPI1 promoter rs1800202 ancestral allele (stopped-flow) (dsDNA)
DNA 1: CGCGGCGCTCTATATAAGTGGGCAGT
DNA 2: ACTGCCCACTTATATAGAGCGCCGCG
As usually defined, the Kd is the constant that tells how readily two partners part at equilibrium. Take B1: the Kd worked out at 1 nM.

B2: TPI1 promoter rs1800202 minor allele (stopped-flow) (dsDNA)
DNA 1: CGCGGCGCTCTATAGAAGTGGGCAGT
DNA 2: ACTGCCCACTTCTATAGAGCGCCGCG
In the case of B2, the Kd was 19 nM.
